Legend:
[1] = target: T1, GPR133 (ADGRD1) C-terminal fragment with C-terminal Twin-Strep-tag, cleaved from C-terminally … (human); test: pull-down; C-terminal Twin-Strep tag purification on Strep-Tactin from the Nuc/ER/Golgi subcellular fraction of HEK293T cells (1% DDM); Western blot, densitometry of NTF/CTF; conditions: partners not purified
T1 construct: also called CTF; GPR133 CTF; source: HEK293T, transfected, in whole-cell lysate or subcellular fractions; not shown: Twin-Strep, C-terminal, kept
T1 chain: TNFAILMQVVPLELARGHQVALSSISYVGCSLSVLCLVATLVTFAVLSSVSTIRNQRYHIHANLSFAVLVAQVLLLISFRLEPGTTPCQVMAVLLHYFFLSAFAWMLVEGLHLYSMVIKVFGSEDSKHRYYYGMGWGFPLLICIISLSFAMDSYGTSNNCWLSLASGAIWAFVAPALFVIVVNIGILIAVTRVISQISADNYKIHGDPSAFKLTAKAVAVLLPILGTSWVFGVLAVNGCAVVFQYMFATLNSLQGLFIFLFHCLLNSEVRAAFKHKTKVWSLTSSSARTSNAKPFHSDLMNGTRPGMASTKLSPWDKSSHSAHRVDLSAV

[2] = target: T1, GPR133 (ADGRD1) C-terminal fragment …; test: pull-down; C-terminal Twin-Strep tag purification on Strep-Tactin from the plasma membrane subcellular fraction of HEK293T cells (1% DDM); Western blot, densitometry of NTF/CTF; conditions: partners not purified

NTF/CTF ratio in the elution [1]: 1
NTF/CTF ratio in the elution [2]: 0.17
B1: GPR133 (ADGRD1) N-terminal fragment, cleaved from C-terminally Twin-Strep-tagged WT GPR133 (domain or fragment, human)
chain: VYSRSQDHPGFQVLASASHYWPLENVDGIHELQDTTGDIVEGKVNKGIYLKEEKGVTLLYYGRYNSSCISKPEQCGPEGVTFSFFWKTQGEQSRPIPSAYGGQVISNGFKVCSSGGRGSVELYTRDNSMTWEASFSPPGPYWTHVLFTWKSKEGLKVYVNGTLSTSDPSGKVSRDYGESNVNLVIGSEQDQAKCYENGAFDEFIIWERALTPDEIAMYFTAAIGKHALLSSTLPSLFMTSTASPVMPTDAYHPIITNLTEERKTFQSPGVILSYLQNVSLSLPSKSLSEQTALNLTKTFLKAVGEILLLPGWIALSEDSAVVLSLIDTIDTVMGHVSSNLHGSTPQVTVEGSSAMAEFSVAKILPKTVNSSHYRFPAHGQSFIQIPHEAFHRHAWSTVVGLLYHSMHYYLNNIWPAHTKIAEAMHHQDCLLFATSHLISLEVSPPPTLSQNLSGSPLITVHLKHRLTRKQHSEATNSSNRVFVYCAFLDFSSGEGVWSNHGCALTRGNLTYSVCRCTHL
modifications: glycosylated (immaturely and maturely glycosylated forms; nine N-linked glycosylation sites predicted within the NTF)
notes: signal peptide in the construct; codon-optimized cDNA of WT human GPR133 from Axxam; also called NTF; GPR133 NTF; source: HEK293T, transfected, in whole-cell lysate or subcellular fractions

From paper PMC8215292, “Functional impact of intramolecular cleavage and dissociation of adhesion G protein–coupled receptor GPR133 (ADGRD1) on canonical signaling” (The Journal of Biological Chemistry, 2021)
